The supplement of paper PMC11246515
± gives the standard deviation of the averaged measurements.

Experiment: total protein half-life in vivo (active degradation + dilution); higher = more stable protein
[1] = E. coli NCM3722 delta-clpP delta-lon delta-hslV, growth: N-lim chemostat, doubling time 6 h
[2] = E. coli NCM3722 delta-hslV, growth: N-lim chemostat, doubling time 6 h
[3] = E. coli NCM3722 delta-lon, growth: N-lim chemostat, doubling time 6 h
[4] = E. coli NCM3722 delta-smpB, growth: N-lim chemostat, doubling time 6 h
[5] = wild type E. coli NCM3722, growth: C-lim chemostat, doubling time 12 h
[6] = wild type E. coli NCM3722, growth: N-lim chemostat, doubling time 6 h
[7] = wild type E. coli NCM3722, growth: N-lim chemostat, doubling time 12 h
[8] = wild type E. coli NCM3722, growth: P-lim chemostat, doubling time 6 h
[9] = wild type E. coli NCM3722, growth: P-lim chemostat, doubling time 12 h
[10] = wild type E. coli NCM3722, growth: C-lim chemostat, doubling time 6 h
[11] = E. coli NCM3722 delta-clpP, growth: N-lim chemostat, doubling time 6 h
[12] = wild type E. coli NCM3722, growth: C-lim chemostat, doubling time 3 h

MIVLVTGATAGFGECITRRFIQQGHKVIATGRRQERLQELKDELGDNLYIAQLDVRNRAAIEEMLASLPAEWCNIDILVNNAGLALGMEPAHKASVEDWETMIDTNNKGLVYMTRAVLPGMVERNHGHIINIGSTAGSWPYAGGNVYGATKAFVRQFSLNLRTDLHGTAVRVTDIEPGLVGGTEFSNVRFKGDDGKAEKTYQNTVALTPEDVSEAVWWVSTLPAHVNINTLEMMPVTQSYAGLNVHRQ
total protein half-life in vivo [1]: 5.86 ± 0.16 h
total protein half-life in vivo [2]: 6.26 ± 1.3 h
total protein half-life in vivo [3]: 6.57 ± 1.4 h
total protein half-life in vivo [4]: 4.72 ± 0.53 h
total protein half-life in vivo [5]: 10.8 ± 0.87 h
total protein half-life in vivo [6]: 4.82 ± 0.56 h
total protein half-life in vivo [7]: 8.94 ± 0.42 h
total protein half-life in vivo [8]: 6.44 ± 0.14 h
total protein half-life in vivo [9]: 11.6 ± 1.9 h

MIVTIVGWLVLFVFLPNLMIIGTSFLTRDDASFVKMVFTLDNYTRLLDPLYFEVLLHSLNMALIATLACLVLGYPFAWFLAKLPHKVRPLLLFLLIVPFWTNSLIRIYGLKIFLSTKGYLNEFLLWLGVIDTPIRIMFTPSAVIIGLVYILLPFMVMPLYSSIEKLDKPLLEAARDLGASKLQTFIRIIIPLTMPGIIAGCLLVMLPAMGLFYVSDLMGGAKNLLIGNVIKVQFLNIRDWPFGAATSITLTIVMGLMLLVYWRASRLLNKKVELE [P0AFK4]
total protein half-life in vivo [1]: 4.04 ± 3 h
total protein half-life in vivo [4]: 5.57 ± 0.42 h
total protein half-life in vivo [10]: 5.93 h
total protein half-life in vivo [5]: 9.29 ± 5.5 h
total protein half-life in vivo [6]: 5.03 h
total protein half-life in vivo [8]: 2.09 h
total protein half-life in vivo [9]: 6.6 h

MIYIGLPQWSHPKWVRLGITSLEEYARHFNCVEGNTTLYALPKPEVVLRWREQTTDDFRFCFKFPATISHQAALRHCDDLVTEFLTRMSPLAPRIGQYWLQLPATFGPRELPALWHFLDSLPGEFNYGVEVRHPQFFAKGEEEQTLNRGLHQRGVNRVILDSRPVHAARPHSEAIRDAQRKKPKVPVHAVLTATNPLIRFIGSDDMTQNRELFQVWLQKLAQWHQTTTPYLFLHTPDIAQAPELVHTLWEDLRKTLPEIGAVPAIPQQSSLF
total protein half-life in vivo [1]: 4.97 ± 2.1 h
total protein half-life in vivo [11]: 3.55 ± 0.26 h
total protein half-life in vivo [2]: 2.76 ± 0.11 h
total protein half-life in vivo [3]: 3.25 ± 0.55 h
total protein half-life in vivo [4]: 2.97 ± 0.13 h
total protein half-life in vivo [10]: 4.28 h
total protein half-life in vivo [5]: 8.14 ± 0.79 h
total protein half-life in vivo [6]: 3.16 ± 0.033 h
total protein half-life in vivo [7]: 5.52 h
total protein half-life in vivo [8]: 5.33 ± 0.11 h
total protein half-life in vivo [9]: 11.5 ± 0.46 h

MIYPDEAMLYAPVEWHDCSEGFEDIRYEKSTDGIAKITINRPQVRNAFRPLTVKEMIQALADARYDDNIGVIILTGAGDKAFCSGGDQKVRGDYGGYKDDSGVHHLNVLDFQRQIRTCPKPVVAMVAGYSIGGGHVLHMMCDLTIAADNAIFGQTGPKVGSFDGGWGASYMARIVGQKKAREIWFLCRQYDAKQALDMGLVNTVVPLADLEKETVRWCREMLQNSPMALRCLKAALNADCDGQAGLQELAGNATMLFYMTEEGQEGRNAFNQKRQPDFSKFKRNP [P0ABU0]
total protein half-life in vivo [1]: 4.73 ± 0.74 h
total protein half-life in vivo [11]: 4.048 ± 0.036 h
total protein half-life in vivo [2]: 4.15 ± 0.17 h
total protein half-life in vivo [3]: 4.48 ± 0.44 h
total protein half-life in vivo [4]: 3.8 ± 0.061 h
total protein half-life in vivo [12]: 2.9 ± 0.51 h
total protein half-life in vivo [10]: 5.55 ± 0.53 h
total protein half-life in vivo [5]: 9.64 ± 0.8 h
total protein half-life in vivo [6]: 3.88 ± 0.12 h
total protein half-life in vivo [7]: 6.07 ± 0.33 h
total protein half-life in vivo [8]: 5.58 ± 0.069 h
total protein half-life in vivo [9]: 10.85 ± 0.06 h

MKAARQQAIVDLLLNHTSLTTEALSEQLKVSKETIRRDLNELQTQGKILRNHGRAKYIHRQNQDSGDPFHIRLKSHYAHKADIAREALAWIEEGMVIALDASSTCWYLARQLPDINIQVFTNSHPICHELGKRERIQLISSGGTLERKYGCYVNPSLISQLKSLEIDLFIFSCEGIDSSGALWDSNAINADYKSMLLKRAAQSLLLIDKSKFNRSGEARIGHLDEVTHIISDERQVATSLVTA [P0ACK8]
total protein half-life in vivo [1]: 4.82 ± 0.058 h
total protein half-life in vivo [11]: 2.74 ± 0.14 h
total protein half-life in vivo [4]: 0.618 h
total protein half-life in vivo [12]: 0.695 ± 0.079 h
total protein half-life in vivo [10]: 1.09 h
total protein half-life in vivo [5]: 1.36 ± 0.31 h
total protein half-life in vivo [6]: 1.3 h
total protein half-life in vivo [7]: 0.218 h

MKAFDLHRMAFDKVPFDFLGEVALRSLYTFVLVFLFLKMTGRRGVRQMSLFEVLIILTLGSAAGDVAFYDDVPMVPVLIVFITLALLYRLVMWLMAHSEKLEDLLEGKPVVIIEDGELAWSKLNNSNMTEFEFFMELRLRGVEQLGQVRLAILETNGQISVYFFEDDKVKPGLLILPSDCTQRYKVVPESADYACIRCSEIIHMKAGEKQLCPRCANPEWTKASRAKRVT
total protein half-life in vivo [1]: 6.22 ± 1.1 h
total protein half-life in vivo [11]: 6.17 h
total protein half-life in vivo [2]: 5.53 h
total protein half-life in vivo [3]: 5.11 ± 0.43 h
total protein half-life in vivo [4]: 5.8 ± 0.11 h
total protein half-life in vivo [10]: > 8 h
total protein half-life in vivo [5]: 11.8 h
total protein half-life in vivo [7]: > 16 h
total protein half-life in vivo [9]: 12.1 ± 0.66 h

MKAILIPFLSLLIPLTPQSAFAQSEPELKLESVVIVSRHGVRAPTKATQLMQDVTPDAWPTWPVKLGWLTPRGGELIAYLGHYQRQRLVADGLLAKKGCPQSGQVAIIADVDERTRKTGEAFAAGLAPDCAITVHTQADTSSPDPLFNPLKTGVCQLDNANVTDAILSRAGGSIADFTGHRQTAFRELERVLNFPQSNLCLKREKQDESCSLTQALPSELKVSADNVSLTGAVSLASMLTEIFLLQQAQGMPEPGWGRITDSHQWNTLLSLHNAQFYLLQRTPEVARSRATPLLDLIKTALTPHPPQKQAYGVTLPTSVLFIAGHDTNLANLGGALELNWTLPGQPDNTPPGGELVFERWRRLSDNSQWIQVSLVFQTLQQMRDKTPLSLNTPPGEVKLTLAGCEERNAQGMCSLAGFTQIVNEARIPACSL
total protein half-life in vivo [1]: 5.24 ± 0.47 h
total protein half-life in vivo [11]: 5.26 ± 0.056 h
total protein half-life in vivo [2]: 6.56 ± 0.62 h
total protein half-life in vivo [3]: 6.26 ± 0.8 h
total protein half-life in vivo [4]: 5.84 ± 0.11 h
total protein half-life in vivo [12]: 3.02 ± 0.21 h
total protein half-life in vivo [5]: 11.6 ± 0.68 h
total protein half-life in vivo [6]: 5.94 ± 0.28 h
total protein half-life in vivo [7]: 12.6 ± 0.49 h
total protein half-life in vivo [8]: 5.7 ± 0.15 h
total protein half-life in vivo [9]: 11.9 ± 0.49 h

MKALARFGKAFGGYKMIDVPQPMCGPEDVVIEIKAAAICGADMKHYNVDSGSDEFNSIRGHEFAGCIAQVGEKVKDWKVGQRVVSDNSGHVCGVCPACEQGDFLCCTEKVNLGLDNNTWGGGFSKYCLVPGEILKIHRHALWEIPDGVDYEDAAVLDPICNAYKSIAQQSKFLPGQDVVVIGTGPLGLFSVQMARIMGAVNIVVVGLQEDVAVRFPVAKELGATAVVNGSTEDVVARCQQICGKDNLGLVIECSGANIALKQAIEMLRPNGEVVRVGMGFKPLDFSINDITAWNKSIIGHMAYDSTSWRNAIRLLASGAIKVKPMITHRIGLSQWREGFDAMVDKTAIKVIMTYDFDE
total protein half-life in vivo [3]: 4.04 h
total protein half-life in vivo [12]: 1.33 h
total protein half-life in vivo [10]: 2.23 h
total protein half-life in vivo [5]: 3.7 ± 0.86 h
total protein half-life in vivo [9]: 5.73 h

MKALSKLKAEEGIWMTDVPVPELGHNDLLIKIRKTAICGTDVHIYNWDEWSQKTIPVPMVVGHEYVGEVVGIGQEVKGFKIGDRVSGEGHITCGHCRNCRGGRTHLCRNTIGVGVNRPGCFAEYLVIPAFNAFKIPDNISDDLAAIFDPFGNAVHTALSFDLVGEDVLVSGAGPIGIMAAAVAKHVGARNVVITDVNEYRLELARKMGITRAVNVAKENLNDVMAELGMTEGFDVGLEMSGAPPAFRTMLDTMNHGGRIAMLGIPPSDMSIDWTKVIFKGLFIKGIYGREMFETWYKMAALIQSGLDLSPIITHRFSIDDFQKGFDAMRSGQSGKVILSWD
total protein half-life in vivo [1]: 4.87 ± 0.096 h
total protein half-life in vivo [11]: 5 ± 0.21 h
total protein half-life in vivo [2]: 5.96 ± 1.6 h
total protein half-life in vivo [3]: 5.24 ± 0.061 h
total protein half-life in vivo [4]: 4.44 ± 0.18 h
total protein half-life in vivo [12]: 2.439 ± 0.022 h
total protein half-life in vivo [10]: 4.37 ± 0.59 h
total protein half-life in vivo [5]: 9.68 ± 1.8 h
total protein half-life in vivo [6]: 4.85 ± 0.16 h
total protein half-life in vivo [7]: 8.68 ± 0.96 h
total protein half-life in vivo [8]: 6.2 ± 0.19 h
total protein half-life in vivo [9]: 12.6 ± 0.36 h
